Experiment [1] deals with YFP-Clu (human). In words: FRET or BRET; receptor (acceptor) photobleaching FRET in co-transfected HEK293T cells, CFP donor and YFP receptor, bleached at 515 nm for 60 s.
In experiment [2] the target is YFP-Clu (human). In words: FRET or BRET; sensitized emission FRET in co-transfected HEK293T cells, CFP donor and YFP receptor, laser confocal microscope.

We go through 1 substance from PMC3689823.

As for “CFP-SelR′ (from UniProt Q9NZV6 1-116) (enzyme)”, the FRET efficiency in experiment [1] is 41.8%; in experiment [2], 40%.
